{
  "source": "paper PMC2665906",
  "about": "“Structure of mouse IP-10, a chemokine” (Acta Crystallographica Section D: Biological Crystallography, 2008)",
  "biological_target": "the molecule itself",
  "assay": "crystal structure; hanging-drop vapour diffusion; protein 10 mg/ml in 50 mM Tris-HCl pH 8.0; 0.1 M Tris-HCl pH 8.0, 0.2 M CaCl2, 35% PEG 3350, 289 K; space group C2, four molecules in the asymmetric unit; 2.5 Å",
  "data": [
    {"protein": "Mouse interferon-γ-inducible protein (IP-10) (natural protein, UniProt P17515 22-98, looked up, Mouse IP-10 (CXCL10), cloned and expressed as described by Campanella et al. (2003) with some modifications; The model holds residues 1-68 (A), 1-67 (B), 4-68 (C) and 4-67 (D); No tag is mentioned; C-terminal residues beyond 67/68 were not seen in the electron density; also called mouse IP-10; CXCL10) IPLARTVRCNCIHIDDGPVRMRAIGKLEIIPASLSCPRVEIIATMKKNDEQRCLNPESKTIKNLMKAFSQKRSKRAP", "values": [
      {"measurement": "stoichiometry N", "value": 4}
    ]}
  ]
}
